We go through one substance from publication PMC5146997.

Test [1] deals with EphA2 at the surface of PC3 cells (endogenous) (human (endogenous in PC3)) (UniProt P29317). Put plainly: in-cell binding assay.
The target in test [2] is EphA2-Fc (entire ectodomain of EphA2 fused to the Fc fragment of IgG) (UniProt P29317). Put plainly: ELISA. (In general: An ELISA detects its analyte on a solid surface through an enzyme-linked reagent.)
Chain of EphA2-Fc (entire ectodomain of EphA2 fused to the Fc fragment of IgG) (P29317 24-537): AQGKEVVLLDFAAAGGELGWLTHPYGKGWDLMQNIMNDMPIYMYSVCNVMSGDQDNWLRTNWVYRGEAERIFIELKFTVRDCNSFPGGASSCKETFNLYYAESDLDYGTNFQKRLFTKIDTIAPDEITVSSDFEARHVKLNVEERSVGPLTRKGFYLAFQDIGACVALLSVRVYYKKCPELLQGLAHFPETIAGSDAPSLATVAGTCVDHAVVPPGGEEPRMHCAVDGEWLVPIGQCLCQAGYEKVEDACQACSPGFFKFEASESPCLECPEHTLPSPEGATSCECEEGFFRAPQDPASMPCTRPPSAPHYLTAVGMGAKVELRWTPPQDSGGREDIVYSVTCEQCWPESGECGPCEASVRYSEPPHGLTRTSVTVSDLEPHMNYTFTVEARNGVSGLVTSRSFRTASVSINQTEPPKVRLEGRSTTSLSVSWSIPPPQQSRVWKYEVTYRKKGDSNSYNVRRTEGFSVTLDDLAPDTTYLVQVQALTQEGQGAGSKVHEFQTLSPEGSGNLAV

Chain of EphA2 at the surface of PC3 cells (endogenous) (human (endogenous in PC3)) (P29317 24-976): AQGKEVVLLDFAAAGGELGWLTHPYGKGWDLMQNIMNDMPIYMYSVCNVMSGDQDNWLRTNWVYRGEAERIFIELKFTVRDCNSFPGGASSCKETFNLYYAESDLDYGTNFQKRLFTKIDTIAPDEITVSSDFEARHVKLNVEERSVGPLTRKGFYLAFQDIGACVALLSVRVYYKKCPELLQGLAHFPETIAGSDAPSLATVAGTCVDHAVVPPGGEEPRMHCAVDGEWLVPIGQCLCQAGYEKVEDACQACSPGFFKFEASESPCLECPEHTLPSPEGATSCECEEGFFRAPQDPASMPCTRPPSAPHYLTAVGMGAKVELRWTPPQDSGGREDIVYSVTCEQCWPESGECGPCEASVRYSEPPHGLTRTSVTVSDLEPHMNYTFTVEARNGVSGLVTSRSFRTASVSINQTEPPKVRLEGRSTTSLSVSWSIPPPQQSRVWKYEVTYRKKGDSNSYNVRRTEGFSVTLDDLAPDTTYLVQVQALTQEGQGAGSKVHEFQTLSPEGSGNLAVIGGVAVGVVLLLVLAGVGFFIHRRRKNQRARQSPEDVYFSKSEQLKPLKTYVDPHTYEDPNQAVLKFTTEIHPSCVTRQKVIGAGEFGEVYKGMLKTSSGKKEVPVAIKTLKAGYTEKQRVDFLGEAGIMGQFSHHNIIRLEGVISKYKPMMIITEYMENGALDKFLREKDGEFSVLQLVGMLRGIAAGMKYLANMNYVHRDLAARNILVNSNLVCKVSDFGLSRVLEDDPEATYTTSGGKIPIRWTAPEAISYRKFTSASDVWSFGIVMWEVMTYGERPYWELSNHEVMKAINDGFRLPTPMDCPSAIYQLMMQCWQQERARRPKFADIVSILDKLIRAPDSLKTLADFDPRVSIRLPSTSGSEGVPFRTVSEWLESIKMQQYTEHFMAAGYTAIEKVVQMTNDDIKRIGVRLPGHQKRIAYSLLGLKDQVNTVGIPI

On to “EphrinA1-Fc (from UniProt P20827 19-182) (Fc fusion)”, for which the IC50 (in general, the concentration at which inhibition is half-maximal) in test [1] turned out to be 400 nM. For the same substance, in test [2], the dissociation constant (Kd) – broadly, the constant that tells how readily two partners part at equilibrium – came to 17 nM.
